Laboratory results taken from patent US20190112387A1 (ISTITUTO BIOCHIMICO ITALIANO GIOVANNI LORENZINI S P A, published 2019).

Biological target: T1, human ERBB2 receptor (human, UniProt P04626 23-1255)
T1 construct: whole, on cells; Presented on human breast carcinoma cell lines with different ERBB2 levels; also called HER2; Neu-Erb
Assay: flow cytometry on SK-BR-3 cells (FIG. 7 legend)
Procedure: Humanized heavy SEQ NO.1 and light chains SEQ. NO.2 or SEQ. […] The cells were cultured in Erlenmeyer flask in incubator at 37° C., 5% CO₂ on a shaker at 120 rpm for at least 14 days. The surnatants were purified through standard protein A resins. […] NO.1 and SEQ.

binding result | Binder
binds | humanized W6/800 antibody huW6/800 (antibody, V domains shown, also called humanized antibody) VH: QVQLVQSGAEVKKPGASVKISCKASGYTFSNYWIEWVRQAPGQGLEWMGEILPGSGSTNYNEKLKGRVTSTRDTSISTAYMELSRLRSDDTGVYYCARGGGNYPYYFDYWGQGTTVTVSS VL: DIQMTQSPSTLSASVGDRVTITCKASQDVGTAVAWYQQKPGKAPKLLIYWASTRHTGVPSRFSGSGSGTEFTLTISSLQPDDFADYFCQQYSSYRTFGAGTKLEIK
binds | mAb W6/800 (antibody, V domains shown, Murine IgG2a purified from hybridoma cultures; they are assigned here by order and by likeness to the humanized VH and VL; also called murine W6/800; parental murine antibody) VH: QVQLQQSGAELMKPGASVKISCKATGYTFSNYWIEWVKQRPGHGLEWIGEILPGSGSTNYNEKLKGKATFTADTSSNTAYMQLSSLTSEDSGVYYCARGGGNYPYYFDYWGQGTTVTVSS VL: IELMTQSHKFMSTSVGDRVSITCKASQDVGTAVAWYQQKPGQSPKLLIYWASTRHTGVPDRFTGSGSGTDFTLTISNVQSEDLADYFCQQYSSYRTFGAGTKLE
